From article PMC4432619

Legend:
[1] = target: FMNL1NCC (FMNL1 1–458, GBD-FH3-CC) (human) (UniProt O95466); test: SEC; analytical gel filtration, Superdex S200 (10/300 GL), typically 100 μg of each protein, 20 mM Tris/HCl pH 8.0, 150 mM NaCl, 1 mM DTE (2.5 mM MgCl2 with Rho GTPases), 0.5 ml/min, 293 K
[2] = target: FMNL2 1–489 (N-terminal FMNL2 construct including the coiled coil domain) (human) (UniProt Q96PY5); test: as above
[3] = target: FMNL1N (FMNL1 2–385, GBD–FH3) (human) (UniProt O95466); test: ITC; GppNHp-loaded GTPase at 500 μM injected from the syringe into 50 μM FMNL in the cell; 20 mM Tris/HCl pH 8, 150 mM NaCl, 5 mM MgCl2, 1 mM DTE, 298 K; MicroCal iTC200
Chain of FMNL1N (FMNL1 2–385, GBD–FH3) (human) (O95466 2-385): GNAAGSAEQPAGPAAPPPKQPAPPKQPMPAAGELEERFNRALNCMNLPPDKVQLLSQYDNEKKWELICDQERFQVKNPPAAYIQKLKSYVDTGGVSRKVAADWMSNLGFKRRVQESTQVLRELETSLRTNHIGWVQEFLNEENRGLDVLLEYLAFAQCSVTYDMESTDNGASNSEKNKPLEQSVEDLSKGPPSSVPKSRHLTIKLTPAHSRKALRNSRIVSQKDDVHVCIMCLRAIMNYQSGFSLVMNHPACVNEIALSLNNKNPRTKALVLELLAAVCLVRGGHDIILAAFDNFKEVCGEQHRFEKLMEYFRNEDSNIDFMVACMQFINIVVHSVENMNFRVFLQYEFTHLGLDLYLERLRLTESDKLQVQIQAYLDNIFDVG

[4] = target: FMNL1NCC (FMNL1 1–458, GBD-FH3-CC) (human) (UniProt O95466); test: as above
Target sequence in this assay (O95466 1-458): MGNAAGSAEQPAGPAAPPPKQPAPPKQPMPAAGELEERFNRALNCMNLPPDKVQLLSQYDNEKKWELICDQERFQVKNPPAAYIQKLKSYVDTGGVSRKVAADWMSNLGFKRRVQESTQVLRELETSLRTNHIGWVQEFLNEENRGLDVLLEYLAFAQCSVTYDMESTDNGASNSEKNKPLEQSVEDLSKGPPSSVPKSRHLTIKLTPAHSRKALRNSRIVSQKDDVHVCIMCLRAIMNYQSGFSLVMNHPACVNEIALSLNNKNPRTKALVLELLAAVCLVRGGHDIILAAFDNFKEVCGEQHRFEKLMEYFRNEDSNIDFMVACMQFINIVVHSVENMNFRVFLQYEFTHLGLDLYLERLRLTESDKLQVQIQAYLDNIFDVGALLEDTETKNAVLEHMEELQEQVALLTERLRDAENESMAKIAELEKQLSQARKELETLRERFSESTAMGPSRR

[5] = target: FMNL2N(S171DD) (residues 1–379) (human) (UniProt Q96PY5); test: as above

Chain of Cdc42 (1–179) (P60953 1-179): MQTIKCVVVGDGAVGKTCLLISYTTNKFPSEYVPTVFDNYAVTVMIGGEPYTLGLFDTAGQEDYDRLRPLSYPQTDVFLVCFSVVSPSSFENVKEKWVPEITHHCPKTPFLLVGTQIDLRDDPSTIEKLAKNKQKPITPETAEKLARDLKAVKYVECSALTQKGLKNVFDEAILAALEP
Chain of FMNL1NCC (FMNL1 1–458, GBD-FH3-CC) (O95466 1-458): as the sequence (O95466 1-458) above

Question: Which stoichiometry N [1] does the source give for “FMNL1NCC (FMNL1 1–458, GBD-FH3-CC) (from UniProt O95466 1-458) (domain or fragment)” here?
Answer: 2

Question: For “FMNL2 1–489 (N-terminal FMNL2 construct including the coiled coil domain) (from UniProt Q96PY5 1-489) (domain or fragment)”, which stoichiometry N [2] is on record?
Answer: 2

Question: With “Cdc42 (1–179) (from UniProt P60953 1-179) (domain or fragment)” as the substance, how does the Kd [3] read?
Answer: 6130 nM

Question: What about the dH [3] of the same substance?
Answer: -5.08 kcal/mol

Question: And the stoichiometry N [3]?
Answer: 0.28

Question: And the Kd [4]?
Answer: 2550 nM

Question: What about the dH [4] of the same substance?
Answer: -5.48 kcal/mol

Question: What about the stoichiometry N [4] of the same substance?
Answer: 0.37

Question: What about the Kd [5] of the same substance?
Answer: 790 nM

Question: What about the dH [5] of the same substance?
Answer: -4.06 kcal/mol

Question: What about the stoichiometry N [5] of the same substance?
Answer: 1.05
